The test has as its target UhGpe1 (U. hordei).

The values that follow come from doi:10.1101/2025.09.26.678928.

As for “SrPit2 peptide corresponding to the U. maydis activating motif”, the reporter activity in S. cerevisiae biosensor assays, percent activity came out at 45%.

Turning to WWFGFTGSL [Pit2 core peptide (…)], the reporter activity in S. cerevisiae biosensor assays, percent activity was 30%.
